The target in test [1] is T1, hNPR1-ANP complex (human, UniProt P01160 124-151, limits assumed).
T1 construct: hNPR1 antigen in the presence of ANP; also called hNPR1 + 100 nM ANP
T1 sequence: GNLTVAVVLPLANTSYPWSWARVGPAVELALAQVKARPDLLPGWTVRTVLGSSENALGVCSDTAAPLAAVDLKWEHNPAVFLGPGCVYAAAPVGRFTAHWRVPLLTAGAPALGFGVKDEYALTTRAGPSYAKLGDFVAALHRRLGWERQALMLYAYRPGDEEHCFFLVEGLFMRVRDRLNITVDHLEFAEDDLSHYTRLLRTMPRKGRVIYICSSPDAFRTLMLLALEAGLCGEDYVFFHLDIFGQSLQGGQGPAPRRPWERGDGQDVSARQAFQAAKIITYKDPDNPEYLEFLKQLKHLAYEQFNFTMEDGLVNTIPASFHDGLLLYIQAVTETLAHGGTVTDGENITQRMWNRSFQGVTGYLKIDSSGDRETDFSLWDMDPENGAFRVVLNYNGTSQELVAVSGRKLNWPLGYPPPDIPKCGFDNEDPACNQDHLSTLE
T1 sequence (peptide): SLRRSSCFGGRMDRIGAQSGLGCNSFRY
Nature of the test: Octet, FabCys; comment: Heterogenous binding. (In BLI a coated tip is dipped into the sample, and binding shifts an interference pattern.)

The target of test [2] is T2, rNPR1-ANP complex (rat, UniProt P01160 124-151 (human entry), limits assumed).
T2 construct: rNPR1 antigen in the presence of ANP; also called rNPR1 + 100 nM ANP
T2 sequence: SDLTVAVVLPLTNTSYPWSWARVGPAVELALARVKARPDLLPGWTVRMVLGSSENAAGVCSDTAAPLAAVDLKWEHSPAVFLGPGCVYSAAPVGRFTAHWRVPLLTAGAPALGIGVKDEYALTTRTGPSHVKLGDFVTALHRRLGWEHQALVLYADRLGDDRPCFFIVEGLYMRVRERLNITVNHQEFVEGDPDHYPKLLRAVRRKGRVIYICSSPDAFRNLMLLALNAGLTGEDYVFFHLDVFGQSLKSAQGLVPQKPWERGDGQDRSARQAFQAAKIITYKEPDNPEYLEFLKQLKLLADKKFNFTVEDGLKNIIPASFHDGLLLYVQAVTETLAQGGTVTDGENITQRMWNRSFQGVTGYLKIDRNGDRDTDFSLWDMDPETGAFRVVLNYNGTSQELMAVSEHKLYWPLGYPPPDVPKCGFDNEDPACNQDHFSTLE
T2 sequence (peptide): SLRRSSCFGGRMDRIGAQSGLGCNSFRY
The test is described as follows: Octet, FabCys; comment: Heterogenous binding.

The target of test [3] is T3, human NPR1 on CHO-K1 cells (human, UniProt P16066 33-1061).
T3 sequence: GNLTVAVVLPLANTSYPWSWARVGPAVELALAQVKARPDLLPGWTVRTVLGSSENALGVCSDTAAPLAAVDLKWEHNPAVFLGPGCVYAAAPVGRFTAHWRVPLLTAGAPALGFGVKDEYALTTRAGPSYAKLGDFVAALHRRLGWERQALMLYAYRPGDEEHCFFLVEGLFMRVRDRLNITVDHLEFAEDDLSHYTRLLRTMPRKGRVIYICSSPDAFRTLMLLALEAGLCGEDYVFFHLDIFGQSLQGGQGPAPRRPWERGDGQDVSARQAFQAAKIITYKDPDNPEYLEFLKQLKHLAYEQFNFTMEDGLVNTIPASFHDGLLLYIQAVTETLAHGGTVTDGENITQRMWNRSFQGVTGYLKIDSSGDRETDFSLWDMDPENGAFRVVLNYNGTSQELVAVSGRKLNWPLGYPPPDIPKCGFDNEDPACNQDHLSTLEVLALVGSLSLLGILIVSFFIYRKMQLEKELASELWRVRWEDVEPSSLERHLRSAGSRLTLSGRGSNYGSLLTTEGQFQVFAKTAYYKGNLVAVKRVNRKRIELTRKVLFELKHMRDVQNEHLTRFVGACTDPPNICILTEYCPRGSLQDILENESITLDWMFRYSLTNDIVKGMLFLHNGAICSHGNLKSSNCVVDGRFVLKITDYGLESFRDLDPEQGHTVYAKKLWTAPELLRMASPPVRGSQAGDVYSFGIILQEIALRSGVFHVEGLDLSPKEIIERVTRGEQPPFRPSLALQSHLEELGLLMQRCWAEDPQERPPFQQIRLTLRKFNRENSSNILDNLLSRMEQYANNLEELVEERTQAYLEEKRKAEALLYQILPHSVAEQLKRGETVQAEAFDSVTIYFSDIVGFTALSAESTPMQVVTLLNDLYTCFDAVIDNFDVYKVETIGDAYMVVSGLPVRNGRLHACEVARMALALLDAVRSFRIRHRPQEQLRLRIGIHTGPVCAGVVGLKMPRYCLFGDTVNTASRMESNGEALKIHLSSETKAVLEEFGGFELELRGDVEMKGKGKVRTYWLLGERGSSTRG
The test is described as follows: cell-based or functional assay.

In test [4] the target is T1, hNPR1-ANP complex. The test is described as follows: FabCys affinity (Octet per Table 18 comment).
For test [5], the target named is T2, rNPR1-ANP complex. Nature of the test: FabCys affinity (Octet per Table 18 comment).
Test [6] addresses T1, hNPR1-ANP complex. The test is described as follows: FabCys, parental value by Octet (table comment), as in Table 14.
Test [7] concerns the target T2, rNPR1-ANP complex. Described as above.
Test [8] concerns the target T1, hNPR1-ANP complex. Nature of the test: Octet, FabCys.
The target of test [9] is T4, rat NPR1 (rNPR1) (rat, UniProt P18910 29-469, limits assumed).
T4 construct: Soluble antigen
T4 sequence: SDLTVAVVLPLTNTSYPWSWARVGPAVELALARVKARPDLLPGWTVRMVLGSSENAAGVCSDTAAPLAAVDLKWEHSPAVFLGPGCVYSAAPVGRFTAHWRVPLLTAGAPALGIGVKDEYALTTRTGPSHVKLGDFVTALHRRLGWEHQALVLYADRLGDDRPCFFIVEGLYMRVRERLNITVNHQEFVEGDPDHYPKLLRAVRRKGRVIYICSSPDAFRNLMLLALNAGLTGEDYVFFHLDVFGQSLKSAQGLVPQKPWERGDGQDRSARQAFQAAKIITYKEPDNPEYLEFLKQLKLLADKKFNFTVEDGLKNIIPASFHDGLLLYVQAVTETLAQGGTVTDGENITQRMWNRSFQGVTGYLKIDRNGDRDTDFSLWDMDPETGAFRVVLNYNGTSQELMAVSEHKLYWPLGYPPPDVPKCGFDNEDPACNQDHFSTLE
The test is described as follows: Octet, FabCys.

Test [10] deals with T5, human Natriuretic Peptide Receptor 1 (hNPR1) (human, UniProt P16066 33-473, limits assumed).
T5 construct: pannings used NPR1-hFc; also called NPR1-hFc
T5 sequence: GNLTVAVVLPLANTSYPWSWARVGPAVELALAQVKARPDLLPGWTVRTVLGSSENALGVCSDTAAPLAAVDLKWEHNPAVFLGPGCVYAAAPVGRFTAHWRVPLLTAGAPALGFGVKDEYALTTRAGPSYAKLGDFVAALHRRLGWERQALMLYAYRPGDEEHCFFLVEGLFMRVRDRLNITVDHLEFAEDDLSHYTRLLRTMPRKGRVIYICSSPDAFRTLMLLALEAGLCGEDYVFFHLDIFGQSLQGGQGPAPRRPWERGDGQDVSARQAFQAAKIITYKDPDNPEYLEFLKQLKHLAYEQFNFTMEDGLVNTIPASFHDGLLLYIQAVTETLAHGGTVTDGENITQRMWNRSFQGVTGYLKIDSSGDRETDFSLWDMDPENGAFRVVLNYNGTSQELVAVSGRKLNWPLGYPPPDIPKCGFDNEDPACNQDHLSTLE
Nature of the test: Octet, FabCys.

The target of test [11] is T2, rNPR1-ANP complex. The test is described as follows: Octet, FabCys.
Test [12] concerns the target T4, rat NPR1 (rNPR1). Nature of the test: FabCys affinity (Octet per Table 18 comment).
The target in test [13] is T5, human Natriuretic Peptide Receptor 1 …. The test is described as follows: FabCys affinity (Octet per Table 18 comment).
The target of test [14] is T4, rat NPR1 (rNPR1). Nature of the test: FabCys, parental value by Octet (table comment), as in Table 14.
The target of test [15] is T5, human Natriuretic Peptide Receptor 1 …. Described as above.

Consider 2 molecules from patent publication US20240052042A1 (Novartis, published 2024).

B1: YY01 (FabCys format) (Fab, V domains shown)
VH: EVQLVESGGGLVQPGGSLRLSCAASGFTFSSYWISWVRQAPGKGLEWVANIKQSGSETYYVESVKGRFTISRDNAKNSLYLQMNSLRAEDTAVYYCARSLRRRSTEHAGFDVWGQGTLVTVSS
VL: DIQMTQSPSSLSASVGDRVTITCRASQGISNYLAWYQQKPGKVPKLLIYAASTLQSGVPSRFSGSGSGTDFTLTISSLQPEDVATYYCQQADKFPYTFGQGTKVEIK
notes: Monovalent FabCys
For orientation: Kd means the concentration at which binding is half-saturated. B1: the Kd in the test with hNPR1-ANP complex [1] amounted to 26 nM; with rNPR1-ANP complex [2], 8.8 nM; with hNPR1-ANP complex [4] it was 16 nM; in the test with rNPR1-ANP complex [5], 14 nM; with hNPR1-ANP complex [6], 16 nM; with rNPR1-ANP complex [7], 14 nM. Further, the “cGMP conc [nM] at 1 µM FabCys, +0.075 nM ANP” value in test [3] stood at 46 nM. The “cGMP conc [nM] at 1 µM FabCys, without ANP” value in test [3] stood at 15 nM.

B2: YY06 (FabCys format) (Fab, V domains shown)
VH: EVQLLESGGGLVQPGGSLRLSCAASGFTFSSYAISWVRQAPGKGLEWVSAISGSGGSTYYAESVKGRFTISRDNSKNTLYLQMNSLRAEDTAVYYCARPYLGDRRSYGFDHWGQGTLVTVSS
VL: QSALTQPASVSGSPGQSITISCTGTSSDVGSYNLVSWYQQHPGKAPKLMIYEGSKRPSGVSNRFSGSKSGNTASLTISGLQAEDEADYYCSSYGFHIVVVVFGGGTKLTVL
notes: Monovalent FabCys
As for B2, the Kd with hNPR1-ANP complex [8] came out at 0.8 nM; with rat NPR1 (rNPR1) [9], 100 nM; in [10] it was 0.62 nM; with rNPR1-ANP complex [11] it was 38 nM; in the test with hNPR1-ANP complex [4], 1 nM; in the test with rat NPR1 (rNPR1) [12], 1600 nM. The dissociation constant Kd was found to be 0.5 nM in test [13]; 1400 nM with rNPR1-ANP complex [5]; 1 nM in the test with hNPR1-ANP complex [6]; 1600 nM in the test with rat NPR1 (rNPR1) [14]; 0.5 nM in test [15]; 1400 nM with rNPR1-ANP complex [7]. The “cGMP conc [nM] at 1 µM FabCys, +0.075 nM ANP” value in [3] came out at 75 nM. In addition, the “cGMP conc [nM] at 1 µM FabCys, without ANP” value in test [3] came out at 20 nM.
